± gives the half width of the 95% confidence interval.
Tests used:
[1] = folding stability dG unfold (combined trypsin and chymotrypsin); higher = more stable
Summary of the method: (§1)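 How resistant each design was to proteolysis was captured as K50, inferred by Bayesian fitting of sequencing counts. Unfolding free energy was then derived relative to a sequence-predicted unfolded-state K50 and a shared folded-state K50, per protease or combined. Digestion used trypsin and chymotrypsin at 11 threefold-diluted concentrations plus a no-protease condition, on mini-proteins under 80 residues without cysteine in a PA-tagged cDNA display construct. Designs were kept only when AlphaFold2 dimer inter-PAE was above 15.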

[2] = folding stability dG unfold from trypsin proteolysis; higher = more stable
Summary of the method: as §1

[3] = folding stability dG unfold from chymotrypsin proteolysis; higher = more stable
Summary of the method: as §1

Row | Sequence | folding stability dG unfold [1] [kcal/mol] | folding stability dG unfold [2] [kcal/mol] | folding stability dG unfold [3] [kcal/mol]
1 | SAGGSAGGMEVPPDQRVLVLDVEGTPEAIEAFAEELVRRGFDKPVAVVAVDPETGKVTIVVPEDSAGGSAGG [r6_652_TrMRF] | 1.08 ± 0.11 | 0.771 ± 0.05 | 1.06 ± 0.1
2 | SAGGSAGGSAGGMVETGTPSSGSSSPSYVLTTTTLTLLDGTFVPTTTTTTFSDPAEAAAASAGGSAGGSAGG [r7_896_JUSTAS] | 1.14 ± 0.086 | 1.52 ± 0.082 | 0.411 ± 0.077
3 | SAGGSAGGSGSSSMPVTVEVKPLATEVDPSNGLVTVTELVTVTRGDTTTLTVTTTTLPPGAPASAGGSAGGS [r12_1010_JUSTAS] | 0.591 ± 0.098 | 1.16 ± 0.027 | 0.00037 ± 0.064
4 | SAGGSANNPKPRIIEIPIQFDWPPGDPQQMRNLAETIADEFSDPGYRVEIDEFTPDYFMFNIKIEWSAGGSA [r15_563_TrROS] | 2.72 ± 0.12 | 2.13 ± 0.1 | 2.937 ± 0.025
5 | SAGGSAGGSAGKTLVFKTKEEALKAIEEEAKKKGYKKVKIEITEVGPDGKVKVKVKIEKKSAGGSAGGSAGG [r17_430_TrROS_Hall] | 1.3 ± 0.19 | 0.763 ± 0.047 | 1.34 ± 0.18
6 | SAGGSAGGKNWRTIPFMIWIPPGAPPIEFEIPLPDGWKVEIEISVVRNPDGWYFIMFSITVQPDSAGGSAGG [r6_510_TrROS] | 3.81 ± 0.22 | 3.12 ± 0.28 | 3.85 ± 0.17
7 | SAGGSAGGSAGGMVYFPESLKEEVIEELKKKGYKIKSIEKIEGGYIRITTPKNPIEIKLLSAGGSAGGSAGG [r17_379_JUSTAS] | 0.8 ± 0.17 | 0.443 ± 0.084 | 0.786 ± 0.25
8 | SKEKVKVEIKLTVTKVFPPEELEKDPKTGKYRNKDTGKWFEPPKVVVKELTLTIEMSKEEVEKLLKELLKSA [r9_165_TrROS_Hall] | 2.29 ± 0.095 | 1.52 ± 0.059 | 2.63 ± 0.048
9 | SMPKIEVKIEYDEETGEITVEIRVPETEEEALEALRKLAEEAGLEVEVEEVEIEEVDGELVIRVKVRIKPSA [r9_164_TrROS_Hall] | 3.08 ± 0.28 | 3.57 ± 0.21 | 2.44 ± 0.16
10 | SAGGSAGGSAGKFKLKIKEVHWRENPNGYEQVKVEIKIPGEEKKIWFPPGMSIDQILDQLSAGGSAGGSAGG [r11_1056_TrROS] | 0.732 ± 0.12 | 0.415 ± 0.081 | 1.13 ± 0.18
11 | SASPSETTTYTVELTSTDPSLTPEDLAERAREEFEAALPPGTRVEVEVVSVTPIPETGTTRYTIRITVRRSA [r9_706_JUSTAS] | 4.55 ± 0.027 | 5.18 ± 0.1 | 4.26 ± 0.046
12 | SPLKEGDTLTFTLPVPDLPNVRIEIDLHFYKDPNTDRYRVLANITVYYGDKPVTFSIEMPVDTFLDLLKSSA [r9_71_TrMRF] | 2.87 ± 0.18 | 2.99 ± 0.24 | 2.34 ± 0.12
13 | SAMKVYKAKVTIVDEEGNLLDEIELEFETEEELKEKVLEELGVSEEEIVEIELSPEVSEEEFEKKLKLESAG [r14_852_JUSTAS] | 0.347 ± 0.14 | -0.425 ± 0.25 | 0.776 ± 0.15
14 | SAGGSAGGSMIEYPELTLEELKAKFEAEGYTVEEEPPTNVVTLTPPDGTPITVTVTPVPESLLSAGGSAGGS [r12_211_JUSTAS] | 0.803 ± 0.057 | 1.21 ± 0.043 | 0.352 ± 0.013
15 | SAGMVVRITVLPEGEEREFVVAATPEEARELLEELGYEVEEFPELPVLVARRPDAVVLVEFIPVAPDALSAG [r5_248_TrMRF] | 1.83 ± 0.039 | 1.59 ± 0.032 | 1.999 ± 0.015
16 | SAGGKYKIEIVDVEVKEDGTVTIKLKLYNENGELIAEIEIELKGVKEVTLELEIGGKKIKITLKVEKPSAGG [r13_427_TrROS_Hall] | 5.36 ± 0.41 | 4.13 ± 0.36 | 5.3 ± 0.17
17 | SAGMIEILELPPNKAIVKIYDPKTGKFEIIEIDFGGKDGKPLSLEELIEKIKKLAKELYPDLEINVTPLSAG [r5_293_TrMRF] | 2.61 ± 0.17 | 3.28 ± 0.26 | 1.98 ± 0.063
18 | SAGGSAGGSAGGMEVYRNPETGTLVFLFELEDGSYVAVTINPDGSVEVRVFDKDGRWVPSAGGSAGGSAGGS [r10_299_TrROS_Hall] | 3.03 ± 0.081 | 2.61 ± 0.064 | 3.507 ± 0.027
19 | SAGGSAGGGKSFSIPVDDAVILDYDPVTKRLTILLPGPGVELVLPLDKVKRIEIDPETGTIHVESAGGSAGG [r6_313_TrMRF] | 1.64 ± 0.073 | 1.54 ± 0.022 | 1.61 ± 0.02
20 | SAGGPWHEQKHEITDPDDGKPIKISHTHYPDGYPRVRIELNNGKKIEFMVPPNGPPTPDQLLDAIKQFSAGG [r13_492_TrROS] | 0.478 ± 0.11 | 0.317 ± 0.092 | 0.452 ± 0.16
21 | SAGGSAGGSAGYLELKISFFDPDGQILASITIWIEIVIPPPPKMEYERDPEDGNNKWEHDSAGGSAGGSAGG [r17_348_TrROS] | 2.26 ± 0.17 | 2.49 ± 0.23 | 2.19 ± 0.056

Row | Sequence | folding stability dG unfold [1] [kcal/mol] | folding stability dG unfold [2] [kcal/mol] | folding stability dG unfold [3] [kcal/mol]
22 | SAGGSAGGSAGPITYRLEIRYEIERIEVRVYPGPEGPLVGEFRIEVRLEVRVEALPPEETSAGGSAGGSAGG [r11_24_TrMRF] | 4.53 ± 0.16 | 3.69 ± 0.17 | 4.88 ± 0.12
23 | SAEERVFLVPVERRPDGSVRLRFVRPDRVVELELPAGFTVEDALQALSAHPDLRVEVLEAHPDLVLVRGSAG [r14_404_TrMRF] | 2.46 ± 0.054 | 1.824 ± 0.017 | 2.741 ± 0.023
24 | SAGGSAGGSAGGGMMKTVLISLEGVDPSGGPSRRVEIELTLSPEEIPKVIEELAKAGRVLSAGGSAGGSAGG [r7_618_JUSTAS] | 0.232 ± 0.099 | 0.533 ± 0.058 | -0.0881 ± 0.1
25 | SAGGSAGGSGSMTTTTDPNSDITVSSIGSPSGPPVTATLNPKTGTVTVTVGGTPVTIPLDALSSAGGSAGGS [r12_650_JUSTAS] | 0.987 ± 0.045 | 0.331 ± 0.059 | 1.32 ± 0.034
26 | SAGGSAKKVRIEIERNADGTLRITVTLPDGTKKEITVDKPGMTLEEIAKKLGLPEGAEITEIERVPSAGGSA [r15_167_TrROS_Hall] | 2.83 ± 0.075 | 2.97 ± 0.067 | 2.71 ± 0.035
27 | SAGGSAGGSANAKIPDGQKVTLDFRVMIMMRMWQFDENGGKMEPRMMMIPIEVEIEIKIPPNASAGGSAGGS [r12_668_TrROS] | 4.71 ± 0.14 | 3.46 ± 0.1 | 5.06 ± 0.14
28 | SAGGSAGGSSPVKQVTEVKDPHSSLPLLRTTETLVLPNGEVVTKVKFIDTKTGKSTEEIFTIPSAGGSAGGS [r20_229_JUSTAS] | 0.833 ± 0.089 | 0.724 ± 0.046 | 1.02 ± 0.13
29 | SAGGSAGGSAGGMITTGITVSATDPNSSTSYTVTVPSSVPSSTFPANTAVGSAALAKLLASAGGSAGGSAGG [r17_412_JUSTAS] | -0.449 ± 0.21 | -0.554 ± 0.19 | -0.225 ± 0.25
30 | SAGGSAGGKEVYKIKVKNAEIVDFDEETGELTIKLKETGKEIKIPLKAIKKIEITDDYIYIYVESAGGSAGG [r6_313_TrROS_Hall] | 4.15 ± 0.17 | 3.64 ± 0.25 | 4.21 ± 0.13
31 | SAGDDLKIKKVEIQINPEHGYISVTFRIDGYEVQIMYDVDPKNGPITMDIYYPGKPIGEFTIPLNDIKISAG [r5_415_TrROS] | 2.68 ± 0.1 | 1.78 ± 0.083 | 3.01 ± 0.05
32 | SAGGGPSMTITVTVSSSELTSGSGPGPLTPEDVAKRLEAELPPGNVTVTVVEVDPATGEVTVRIEVESAGGS [r16_284_JUSTAS] | 1.17 ± 0.077 | 1.17 ± 0.064 | 1.1 ± 0.034
33 | SAGGSAGGSAMITSDDLEKLLKKLGIDPKKLGPEKLAKIFKELYPDAIITADPEGKAYIYPSAGGSAGGSAG [r3_375_TrMRF] | 1.2 ± 0.14 | 1.72 ± 0.07 | 0.467 ± 0.19
34 | SAGGSAGGANDPEMPKPKRVEITIPPDEEIRNPNGKEMPVEQAREYAEYLADRYGIDVEITISPSAGGSAGG [r6_162_TrROS] | -0.202 ± 0.41 | -0.406 ± 0.29 | 0.215 ± 0.43
35 | SAGMPVTVTSTSDPENGSTTVPRTHPTGPVVTVTITKLPPGELRVTVDAGTTVTLYTLPPDALTTFTTPSAG [r5_14_JUSTAS] | 0.339 ± 0.11 | 0.51 ± 0.16 | 0.13 ± 0.18
36 | SAGGMIQIERDKDGYLRITIWVPGDPKEAEEIAENIIELLQDLGFDEVDIDYEPFDGGVMIEITVKVSAGGS [r8_113_TrROS] | 3.29 ± 0.077 | 2.9 ± 0.12 | 3.49 ± 0.083
37 | SAGGSMVIEAEIEFPDMTPEEVEERAEEIAEAAAEFARKKGFPIKKVEADVEVFPGEGVVKVTVTLEGSAGG [r13_212_TrMRF] | 0.611 ± 0.11 | 0.612 ± 0.043 | 0.204 ± 0.2
38 | SAGGSAGGSGSMSIPVGSPEALREYLRERLPPEADLSEEELEALVEELLAKASIDSDGRLHLASAGGSAGGS [r12_983_JUSTAS] | 2.05 ± 0.053 | 1.65 ± 0.039 | 2.207 ± 0.012
39 | SAGGSAGGSAIKPGETIPIKIGNFPIKITVYGDWVEITFPNGRKIRFRVAVDDGKLEIDIYFSAGGSAGGSA [r18_172_TrROS] | 4.18 ± 0.14 | 4.07 ± 0.24 | 4.31 ± 0.14
40 | SAGGNNAWVQITIPITIKPVYEPEYDPDNGKPKWEPREMEIPITIWAPFDDPEDAERAADDILKSLGISAGG [r13_35_TrROS] | 0.756 ± 0.1 | 0.837 ± 0.037 | 0.769 ± 0.12
41 | SAGGSAGGSAGMEIEEKGDYLVIRIKVKEGETIELPEGWEVVDVEYDPETEEVTIVIRRKSAGGSAGGSAGG [r11_942_TrROS_Hall] | 3.9 ± 0.28 | 4.38 ± 0.18 | 2.88 ± 0.1
42 | SAGGSAGGPMSAEELARFLANEFHKKHGMPPGHRVKIPVKWRDPEDGNEQEVTIEIPIRMPKGDSAGGSAGG [r6_799_TrROS] | 1.2 ± 0.16 | 0.32 ± 0.17 | 1.4 ± 0.083
